Source: the RNAGym collection of RNA variant scans (doi:10.1073/pnas.2313332121)

B1: TPR t1 (parent)
chain: GACCAAUCUGCCCUCAGAGCUCGAGAACAUCUUCGGAUGCAGAGGAGGCAGGCUUCGGUGGCGCGAUAGCGCCAACGUCCUCAACCUCCAAUGCAUCCCACCACAUGAUGAUGCCUGAAGAGCCUUGGUUUUUUG

Variants of: B1
Assay: polymerase ribozyme fitness, log enrichment relative to wild type (log ratio); higher = more active; in vitro selection for triplet polymerase activity
Outline: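 Streptavidin-bead capture of gel-excised extended constructs, followed by RT-PCR, closed a single triplicate in vitro selection round. That round began by annealing PCR-built, transcribed mutant libraries of each subunit of a heterodimeric triplet polymerase ribozyme with a biotinylated primer, the partner subunit and triplets, then incubating them frozen at −7 °C. After Illumina sequencing of inputs and outputs, genotypes needed ≥10 input reads and ≥1 read per output. Fitness is the base-2 logarithm of genotype enrichment over wild-type enrichment, using inverse-variance-weighted replicate averages.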

Row | Variant | polymerase ribozyme fitness (log ratio)
1 | C49G C124A | 1.39
2 | U7G C11U C97U | 0.101
3 | U9C G107U U112A A119G | -4.69
4 | C40G A43U | -2.95
5 | A16U U59A | 0.971
6 | G48C C53U U54C U81A | -2.99
7 | C12A A37U U78A A83G U106C | -3.17
8 | A29C C56G | -3.25
9 | C73U C123U | 0.98
10 | U7A G17U C62U A111C G135U | -4.01
11 | C12U C56U G58A G71U U112C G122A | 0.796
12 | C99U G113A G117A | -5.78
13 | A5U G57A G63U C89G U112C U126A | -3.35
14 | A6U C123U | 1.41
15 | A43U C85A | -2.96
16 | G17A G44U C49U U55G | -4.05
17 | G10U U30C C124G | -2.38
18 | C88U U106A U130A | -0.0999
19 | C8U G10A G42A G45A C53U C85A | -4.02
20 | C72A U129C | -0.6
21 | G10A C40G | -0.282

Row | Variant | polymerase ribozyme fitness (log ratio)
22 | A5U G60U U116C | -1.69
23 | G42A C88A | -1.56
24 | G10U C20A A50C C72U C114U | -4.68
25 | U9C G69U U130G | 0.198
26 | G52U C72A C85A | -1.3
27 | G19A G69C G110C | -6.61
28 | C3U A6U G48A C62U C115U | -2.86
29 | C11A C12U G61U A100U | -1.23
30 | G10C C40U G45U | -1.47
31 | C56A G93U U112A U116G | -3.29
32 | A37U A50G U54G | -0.818
33 | G120A U125A U126A G128A | 0.067
34 | C40U A43U | -1.09
35 | A50C G71U | 0.242
36 | G36U G58U U59A A91C U112A | -2.22
37 | G63C G71U U96A A100U G117U U134G | -5.35
38 | C22G A46G G60A G120A | -4.49
39 | A26U A43G G48U C94G G110A | -6.66
40 | U54A C73A U78C C102A | -1.97
41 | G36U U59A G93C G120C | -0.759
42 | C40U A95C | -1.45

Row | Variant | polymerase ribozyme fitness (log ratio)
43 | A41G U55G A74G | 0.0435
44 | A26U U54C C86G A121U | -0.876
45 | G10A A43G | -1.53
46 | C31G C53A G107C | -1.38
47 | U9A G110U | -0.815
48 | G58C U81A C123A | -0.0338
49 | A6C C8A C13G A43U G69C C88A | -2.92
50 | C12G A50U C73U | -0.885
51 | C49G A90U G113U | -3.57
52 | A46G G60A | 0.0971
53 | C62G G120A | -0.673
54 | A5U G42A | -1.63
55 | C40A C88U | -0.447
56 | C13U U112A | 1.43
57 | C53A C80U U106A | -5.29
58 | G44A G48C G60U | -0.957
59 | G117A U129A | -3.39
60 | G44A C70G C101G C114U G128C | -6.56
61 | G69U U129A | -0.546
62 | G42U G69U C115A | -1.45
63 | C12A A43G C70A U81A G120U | -5.53

Row | Variant | polymerase ribozyme fitness (log ratio)
64 | A6G A29G C72G C82G C89A G120C | -4.07
65 | C49G C123A | -0.0129
66 | G44C U92G U106A U116A | -6.02
67 | C12G U130C | 0.663
68 | G44U C72A G127C U131C | -3.12
69 | A26U A37C | -2.35
70 | G61A C88A | -0.575
71 | U14A A111C C115A | -5.18
72 | C8A G51C C53A A66U C88A C114A | -6.04
73 | C40U G45A | -1.41
74 | C20G A91C C114U | -2.15
75 | A41C U59G C79U C124A | 0.881
76 | G47U U78C A111U | -4.07
77 | G60U C94U G110C | -4.16
78 | G93A G135U | -2.04
79 | G44U A68G U92A A119U C124U | -6.31
80 | A27U G63C | -3.59
81 | G39C G63A C76A G117C | -6.26
82 | A2U A16U G45A U87C A121C | -2.88
83 | C20A G39U | -4.11
84 | G19A G120A | -2.6
